Results: PMC9328677 (2021)
Residue numbers refer to the chain shown, from its start. Names may count otherwise.

B1: acidic domain of Homo sapiens APLF (APLF^AD, residues 450 to 511), wild type (domain or fragment)
chain: DEDNDNVGQPNEYDLNDSFLDDEEEDYEPTDEDSDWEPGKEDEEKEDVEELLKEAKRFMKRK
B2: APLF^AD double anchor mutant Y462A/F468A (DA-34) (domain or fragment)
chain: B1 chain with Y13A, F19A
B3: SUMO-APLF^AD quadruple anchor mutant Y462A/F468A/Y476A/W485A (QA) (domain or fragment)
chain: B1 chain with Y13A, F19A, Y27A, W36A
B4: APLF^AD double anchor mutant Y476A/W485A (DA-AB) (domain or fragment)
chain: B1 chain with Y27A, W36A
B5: APLF^AD mutant of Y462 tested by ITC on H3-H4 (domain or fragment)
chain: B1 chain with Y13A
B6: APLF^AD F468A (protein)
chain: B1 chain with F19A

Biological target: T1, Drosophila melanogaster histone H3-H4 complex, full-length (Drosophila melanogaster, UniProt P02299 1-136; P84040 1-103)
Assay: ITC

| Kd [nM] | Binder |
| --- | --- |
| 552 | B1 |

Biological target: stoichiometric mixture of full-length Drosophila melanogaster H2A-H2B and H3-H4 (octamer-mix) (Drosophila melanogaster, UniProt P84051 1-124; P02283 1-123; P02299 1-136; P84040 1-103)
Assay: ITC

| Kd [nM] | Binder |
| --- | --- |
| 1220 | LDEDNDNVGQPNEADLNDSALDDEEEDAEPTDEDSDAEPGKE (domain or fragment) [SUMO-APLF^AD truncated QA mutant (QA-Δ, residues 449 to 490)] |
| 90 | GLDEDNDNVGQPNEYDLNDSFLDDEEEDYEPTDEDSDWEPGKE (domain or fragment) [truncated APLF^AD construct corresponding to residues 449 to 490 (APLF^AD-Δ)] |
| 671 | B2 |
| 794 | B3 |
| 317 | B4 |

Biological target: T1, Drosophila melanogaster histone H3-H4 …
Assay: ITC
Remark: another data set of the same source

| Kd [nM] | Binder |
| --- | --- |
| 7630 | B2 |
| 3090 | B5 |
| 980 | B6 |
| 790 | B1 |
| 2050 | B4 |
